Among the data in paper PMC3203579 are Kd values, retold here.

This series has as its target T1, AtFib2 (Arabidopsis thaliana, UniProt Q94AH9 1-320).
T1 sequence: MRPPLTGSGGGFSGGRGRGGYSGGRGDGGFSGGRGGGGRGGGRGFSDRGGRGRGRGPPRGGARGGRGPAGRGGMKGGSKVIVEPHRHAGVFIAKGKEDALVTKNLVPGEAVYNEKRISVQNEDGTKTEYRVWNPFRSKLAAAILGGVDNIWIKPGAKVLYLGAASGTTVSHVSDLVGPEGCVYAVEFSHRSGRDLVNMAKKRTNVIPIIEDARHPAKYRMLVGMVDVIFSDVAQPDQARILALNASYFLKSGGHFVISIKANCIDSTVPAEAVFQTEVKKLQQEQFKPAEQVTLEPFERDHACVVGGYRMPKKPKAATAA
In words: EMSA. (In general: Mobility shift assays separate free from complexed probe on a gel.)

B1: poly(A) 80 nt (ssRNA)
RNA: AAAAAAAAAAAAAAAAAAAAAAAAAAAAAAAAAAAAAAAAAAAAAAAAAAAAAAAAAAAAAAAAAAAAAAAAAAAAAAAA
For B1, binding was put at a Kd of 190 nM.
